Test results published in PMC5434536, “ING3 promotes prostate cancer growth by activating the androgen receptor” (BMC Medicine, 2017).

Target: T1, HA-tagged TIP60 (pCIN4-FLAG-HA-TIP60) (UniProt Q92993 1-513)
T1 construct: TIP60 from the plasmid pCIN4-FLAG-HA-TIP60 (gift from Dr. Wei Gu)
Assay: co-IP; cells co-transfected with AR, TIP60 and increasing amounts of ING3 plasmid + 10 nM MB for 24 h; AR or TIP60 immunoprecipitated with anti-AR or HA-affinity beads
Conditions: partners not purified

T1 sequence (Q92993 whole entry): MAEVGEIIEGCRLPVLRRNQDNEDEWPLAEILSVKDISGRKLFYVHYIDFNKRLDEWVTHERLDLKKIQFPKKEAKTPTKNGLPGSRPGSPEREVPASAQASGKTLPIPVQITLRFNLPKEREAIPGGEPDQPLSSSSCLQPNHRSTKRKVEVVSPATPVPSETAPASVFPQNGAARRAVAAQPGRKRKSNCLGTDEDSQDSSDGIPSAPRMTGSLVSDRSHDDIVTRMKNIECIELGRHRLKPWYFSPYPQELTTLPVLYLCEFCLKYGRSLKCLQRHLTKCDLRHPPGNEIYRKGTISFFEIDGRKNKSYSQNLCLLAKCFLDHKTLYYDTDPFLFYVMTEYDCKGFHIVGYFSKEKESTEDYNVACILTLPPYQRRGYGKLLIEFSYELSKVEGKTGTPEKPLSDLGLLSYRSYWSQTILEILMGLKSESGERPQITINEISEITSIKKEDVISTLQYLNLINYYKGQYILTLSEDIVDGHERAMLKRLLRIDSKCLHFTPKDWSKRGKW

B1: Myc-tagged androgen receptor (pCMV-3myc-AR) (receptor, UniProt P10275 1-920, looked up)
chain: MEVQLGLGRVYPRPPSKTYRGAFQNLFQSVREVIQNPGPRHPEAASAAPPGASLLLLQQQQQQQQQQQQQQQQQQQQQQQETSPRQQQQQQGEDGSPQAHRRGPTGYLVLDEEQQPSQPQSALECHPERGCVPEPGAAVAASKGLPQQLPAPPDEDDSAAPSTLSLLGPTFPGLSSCSADLKDILSEASTMQLLQQQQQEAVSEGSSSGRAREASGAPTSSKDNYLGGTSTISDNAKELCKAVSVSMGLGVEALEHLSPGEQLRGDCMYAPLLGVPPAVRPTPCAPLAECKGSLLDDSAGKSTEDTAEYSPFKGGYTKGLEGESLGCSGSAAAGSSGTLELPSTLSLYKSGALDEAAAYQSRDYYNFPLALAGPPPPPPPPHPHARIKLENPLDYGSAWAAAAAQCRYGDLASLHGAGAAGPGSGSPSAAASSSWHTLFTAEEGQLYGPCGGGGGGGGGGGGGGGGGGGGGGGEAGAVAPYGYTRPPQGLAGQESDFTAPDVWYPGGMVSRVPYPSPTCVKSEMGPWMDSYSGPYGDMRLETARDHVLPIDYYFPPQKTCLICGDEASGCHYGALTCGSCKVFFKRAAEGKQKYLCASRNDCTIDKFRRKNCPSCRLRKCYEAGMTLGARKLKKLGNLKLQEEGEASSTTSPTEETTQKLTVSHIEGYECQPIFLNVLEAIEPGVVCAGHDNNQPDSFAALLSSLNELGERQLVHVVKWAKALPGFRNLHVDDQMAVIQYSWMGLMVFAMGWRSFTNVNSRMLYFAPDLVFNEYRMHKSRMYSQCVRMRHLSQEFGWLQITPQEFLCMKALLLFSIIPVDGLKNQKFFDELRMNYIKELDRIIACKRKNPTSCSRRFYQLTKLLDSVQPIARELHQFTFDLLIKSHMVSVDFPEMMAEIISVQVPKILSGKVKPIYFHTQ
notes: androgen receptor from the plasmid pCMV-3myc-AR (gift from Dr. Marja Nevalainen); pCMV-3myc-AR is the only full-length AR plasmid named; also called AR-Myc; Myc-tagged AR; source: HEK293T, transfected, in lysate
fold increase of the AR-TIP60 association (ratio AR:HA-TIP60) with co-transfected ING3 against without: ~8 fold
